Experimental data as given in the supplement of paper PMC7877785.
± gives the uncertainty stated by the source.

Assay: self-splicing fitness, log relative to wild type (ln ratio); higher = more splicing; Tetrahymena group I intron in knt gene, E. coli kanamycin selection, DiMSum; sequences stand for … in CUCUCU…GGAGGGAAAAGUUAUCAGGCAUGCACCUGGUAGCUAGUCUUUAAACCAAUAGAUUGCAUCGGUUUAAAAGGCAAGACCGUCAAAUUGCGGGAAAGGGGUCAACAGCCGUUCAGUACCAAGUCUCAGGGGAAACUUUGAGAUGGCCUUGCAAAGGGUAUGGUAAUAAGCUGACGGACAUGGUCCUAACCACGCAGCCAAGUCCUAAGUCAACAGAUCUUCUGUUGAUAUGGAUGCAGUUCACAGACUAAAUGUCGGUCGGGGAAGAUGUAUUCUUCUCAUAAGAUAUAGUCGGACCUCUCCUUAAUGGGAGCUAGCGGAUGAAGUGAUGCAACACUGGAGCCGCUGGGAACUAAUUUGUAUGCGAAAGUAUAUUGAUUAGUUUUGGAGUACUCGUGGUCG
Method in brief: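 A randomised library covering all eight P1ex-region intron nucleotides was built with the intron in the knt kanamycin-resistance gene on pET-22b(+) and held in E. coli BL21(DE3). Cells were grown overnight at 37°C or 30°C on LB agar, with or without 25 μg/mL kanamycin, plus 100 μg/mL carbenicillin, 50 μM IPTG and 0.2% rhamnose, and pooled colonies were amplicon-sequenced on an Illumina HiSeq 2500. DiMSum fitness is the error-weighted combination of wild-type-normalised replicate fold changes, kanamycin versus none.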

Sequence	self-splicing fitness (ln) (30 °C)	self-splicing fitness (ln) (37 °C)
CACCAGCAAUAUUACGAUAU	-3.22 ± 0.17	-2.46 ± 0.2
UUGUAGCAAUAUUACGUCUU	-0.945 ± 0.16	-0.491 ± 0.19
GCCCAGCAAUAUUACGGCGG	-3.37 ± 0.16	-1.93 ± 0.17
CACAAGCAAUAUUACGCUGG	-4.18 ± 0.23	-1.74 ± 0.14
UCAGAGCAAUAUUACGGAUG	-3.87 ± 0.38	-2.06 ± 0.35
UGCCAGCAAUAUUACGUCAU	-3 ± 0.16	-2.38 ± 0.18
UAACAGCAAUAUUACGAUAU	-2.28 ± 0.18	-1.28 ± 0.2
CUUGAGCAAUAUUACGGCUA		-1.11 ± 0.42
GAUCAGCAAUAUUACGUCGC	-1.11 ± 0.1	0.0313 ± 0.11
UCUUAGCAAUAUUACGAUAC		-3.06 ± 0.34
AGGGAGCAAUAUUACGACUA	-2.2 ± 0.5	-1.98 ± 0.32
CAACAGCAAUAUUACGGGCA	-2.61 ± 0.1	-1.9 ± 0.12
AACGAGCAAUAUUACGGUUU	-2.07 ± 0.079	-0.83 ± 0.089
GCGGAGCAAUAUUACGGACG	-3.15 ± 0.47	-2.33 ± 0.42
ACAGAGCAAUAUUACGUAGA	-4.17 ± 0.37	-2.19 ± 0.21
CCACAGCAAUAUUACGAGUA	-3.68 ± 0.2	-2.31 ± 0.19
GGAUAGCAAUAUUACGGAAU	-2.48 ± 0.17	-2.33 ± 0.24
AUCCAGCAAUAUUACGCCCG	-1.84 ± 0.38	-1.04 ± 0.37
GAGGAGCAAUAUUACGCUUA	-1.5 ± 0.16	-1.42 ± 0.21
UACGAGCAAUAUUACGUUUG	-3.84 ± 0.27	-1.94 ± 0.17
AGGCAGCAAUAUUACGUUAA	-2.6 ± 0.15	-1.88 ± 0.13
GUAGAGCAAUAUUACGCUGU	-1.88 ± 0.2	-0.607 ± 0.22
GGGUAGCAAUAUUACGUUAA	-1.72 ± 0.16	-0.668 ± 0.13
AUACAGCAAUAUUACGGAUA	-2.52 ± 0.14	-2.38 ± 0.17
AAUUAGCAAUAUUACGGGCC		-1.11 ± 0.49

Sequence	self-splicing fitness (ln) (30 °C)	self-splicing fitness (ln) (37 °C)
ACCUAGCAAUAUUACGCCGU	-0.801 ± 0.083	-0.776 ± 0.11
GCUUAGCAAUAUUACGUGUC	-1.23 ± 0.14	-0.348 ± 0.14
GGCGAGCAAUAUUACGGCCC	0.209 ± 0.31	
GUGCAGCAAUAUUACGUGAG	-0.173 ± 0.054	-0.117 ± 0.084
CAUUAGCAAUAUUACGUAUC	-3.14 ± 0.31	-2.26 ± 0.28
UAUGAGCAAUAUUACGGGUC	-3.72 ± 0.23	-2.91 ± 0.25
CUGCAGCAAUAUUACGAUCU	-4.3 ± 0.43	-2.46 ± 0.27
AUCUAGCAAUAUUACGAAUG	-2.37 ± 0.18	-0.667 ± 0.19
CUUUAGCAAUAUUACGCCGG	-1.74 ± 0.16	-1.22 ± 0.19
GGUAAGCAAUAUUACGCAGC	-0.901 ± 0.24	-1.19 ± 0.23
GAUGAGCAAUAUUACGGGCU	-2.22 ± 0.4	
AGUGAGCAAUAUUACGGGGU	-4.06 ± 0.25	-2.67 ± 0.21
ACACAGCAAUAUUACGCCGA	-1.15 ± 0.08	-1.34 ± 0.094
AAGCAGCAAUAUUACGUACA	-1.43 ± 0.091	-0.617 ± 0.11
AAUAAGCAAUAUUACGCAGG	-1.85 ± 0.14	-2.12 ± 0.15
AGUAAGCAAUAUUACGGUGU	-2.92 ± 0.14	-2.44 ± 0.16
CUAAAGCAAUAUUACGCGAU	-0.384 ± 0.051	0.349 ± 0.062
UAUGAGCAAUAUUACGGAAG	-3.37 ± 0.37	-2.14 ± 0.36
AGUAAGCAAUAUUACGACGG	-3.42 ± 0.27	-1.94 ± 0.2
GUGAAGCAAUAUUACGGCCA	-0.0192 ± 0.11	0.468 ± 0.15
CUCAAGCAAUAUUACGACGG	-0.942 ± 0.1	-1.05 ± 0.13
UUUGAGCAAUAUUACGACAU	-3.673 ± 0.034	-2.43 ± 0.043
CAUGAGCAAUAUUACGACUU	-3.95 ± 0.32	-3.81 ± 0.36
CGGGAGCAAUAUUACGCUUU		-0.957 ± 0.27
CGACAGCAAUAUUACGCGGG	-2.71 ± 0.12	-2.39 ± 0.15

Sequence	self-splicing fitness (ln) (30 °C)	self-splicing fitness (ln) (37 °C)
UCCCAGCAAUAUUACGGCGG	-2.91 ± 0.16	-2.21 ± 0.18
CCUUAGCAAUAUUACGCUUA	-3.61 ± 0.34	-2.66 ± 0.33
CCGUAGCAAUAUUACGGCUG	-2.46 ± 0.21	-1.19 ± 0.17
UAGCAGCAAUAUUACGAAUG	-0.736 ± 0.072	-0.47 ± 0.13
CAGAAGCAAUAUUACGAAGA	-3.8 ± 0.27	-2.85 ± 0.25
CAAAAGCAAUAUUACGGGCA	-2.88 ± 0.16	-1.99 ± 0.14
UGAUAGCAAUAUUACGCCCA	0.955 ± 0.13	-0.0259 ± 0.17
GAAUAGCAAUAUUACGUACA	-1.7 ± 0.14	-0.774 ± 0.2
GAAAAGCAAUAUUACGAAUG	-1.89 ± 0.07	-1.19 ± 0.08
ACGAAGCAAUAUUACGUUAA	-3.25 ± 0.22	-2.09 ± 0.14
UGGCAGCAAUAUUACGACCU	0.0278 ± 0.12	0.0625 ± 0.12
AGACAGCAAUAUUACGAAGG	-3.88 ± 0.18	-2.75 ± 0.23
GACUAGCAAUAUUACGUACC	-1.65 ± 0.15	-0.961 ± 0.14
CGUUAGCAAUAUUACGUGUG	-0.838 ± 0.062	-1.12 ± 0.08
ACGUAGCAAUAUUACGUUUC	-4.47 ± 0.25	-2.87 ± 0.19
AAACAGCAAUAUUACGUGGG	-3.64 ± 0.13	-2.71 ± 0.11
UGGUAGCAAUAUUACGAGAU		-1.76 ± 0.43
CUCUAGCAAUAUUACGUGAU	-3.45 ± 0.15	-3.92 ± 0.24
GAACAGCAAUAUUACGCUAU	-2.43 ± 0.1	-1.21 ± 0.11
GGUUAGCAAUAUUACGUGUU	-1.43 ± 0.096	-0.323 ± 0.098
CGUUAGCAAUAUUACGUUGG	-1.45 ± 0.091	-0.573 ± 0.12
AGAUAGCAAUAUUACGUAUC	-2.64 ± 0.17	-1.71 ± 0.18
UGAAAGCAAUAUUACGGUGU	-3.55 ± 0.18	-2.02 ± 0.22
UUGCAGCAAUAUUACGUGGC		-2.93 ± 0.32
AGAUAGCAAUAUUACGUGUC	-3.36 ± 0.28	-3.11 ± 0.27

Sequence	self-splicing fitness (ln) (30 °C)	self-splicing fitness (ln) (37 °C)
CGCUAGCAAUAUUACGAGCG	-4.02 ± 0.39	-2.69 ± 0.39
CUGUAGCAAUAUUACGUCAA	-2.56 ± 0.19	-1.85 ± 0.19
CCCAAGCAAUAUUACGGAUA	-2.84 ± 0.22	-2.17 ± 0.21
GACAAGCAAUAUUACGAACG	-1.55 ± 0.13	-0.997 ± 0.22
CUCGAGCAAUAUUACGAGGG	-3.45 ± 0.28	-1.83 ± 0.35
GGUUAGCAAUAUUACGAAAU	-1.45 ± 0.11	-0.492 ± 0.14
GUUGAGCAAUAUUACGCACC	-2.94 ± 0.16	-1.67 ± 0.14
UUAUAGCAAUAUUACGGGUC	-2.3 ± 0.32	-2.47 ± 0.41
GUUGAGCAAUAUUACGACGA	-3.3 ± 0.32	-2.2 ± 0.27
GUUGAGCAAUAUUACGUGAA		-1.76 ± 0.22
UUACAGCAAUAUUACGCGUG	-1.17 ± 0.081	-0.156 ± 0.093
GAAGAGCAAUAUUACGUCCG	-3.48 ± 0.39	
CACCAGCAAUAUUACGACGA	-2.13 ± 0.14	-1.54 ± 0.12
ACGCAGCAAUAUUACGCACU	-0.177 ± 0.08	0.479 ± 0.11
CGUCAGCAAUAUUACGCGAC	-2.57 ± 0.49	
AUCGAGCAAUAUUACGGACG	-2.42 ± 0.17	-2.96 ± 0.2
UGACAGCAAUAUUACGCAGA	-1.96 ± 0.15	-1.11 ± 0.13
CCUUAGCAAUAUUACGAGAA	-2.19 ± 0.38	-2.79 ± 0.47
ACAGAGCAAUAUUACGGGCG	-3.27 ± 0.19	-1.25 ± 0.2
CGUUAGCAAUAUUACGCUUU		-2.41 ± 0.3
UACGAGCAAUAUUACGCACC	-1.91 ± 0.39	
UAAAAGCAAUAUUACGCCGG	-0.134 ± 0.11	0.0922 ± 0.14
GUUGAGCAAUAUUACGUCGU	-3.25 ± 0.39	
UAAGAGCAAUAUUACGAUAC	-3.55 ± 0.26	-3.09 ± 0.4
